B2: PriL, primase large noncatalytic subunit, recombinant (natural protein, S. solfataricus, UniProt Q9UWW1 1-307, looked up)
chain: MALDVKKYPFIKSLDDELKKYGGGITLTDLLLNSTTLIDQAKDRIQKTKSGDELPHYVSYNEPVLVFYTTLLSLAILNDVKLIRRYAYAEAKQFRSLLHTENEENLLEISKLLDLKINRCDPIKFYLEKKRRIIQKEFCVHFIDYLKYTKDLKEDWKLSGQILHKGYVYLDKNQLIGLIAESIKSKIVEMIRPLNLKEIPEKLKSLIERRGIIPPCIENILAKEKLNEEEIRTLITFYIDIGKGLSGIVSIMKKYNVSNVEDLYRKYRGDKGTRYIVYSCAKMKQLGLCVSSCNVKNPLQLYFLSNE

Columns and labels:
[1] = target: B2; experiment: ITC
[2] = target: T1, PriSL heterodimer (PriS and PriL), recombinant (S. solfataricus, UniProt Q97Z83 1-330; Q9UWW1 1-307); experiment: SEC
T1 sequence (looked up) 1: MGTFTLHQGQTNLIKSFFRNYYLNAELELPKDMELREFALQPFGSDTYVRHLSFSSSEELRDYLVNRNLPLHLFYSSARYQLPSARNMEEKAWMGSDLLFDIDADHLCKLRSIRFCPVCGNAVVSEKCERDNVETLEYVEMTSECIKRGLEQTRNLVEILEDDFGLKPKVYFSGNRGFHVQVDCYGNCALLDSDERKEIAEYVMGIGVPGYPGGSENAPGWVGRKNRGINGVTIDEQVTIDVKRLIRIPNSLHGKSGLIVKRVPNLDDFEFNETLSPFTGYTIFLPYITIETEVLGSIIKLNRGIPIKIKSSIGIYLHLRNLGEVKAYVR
T1 sequence (looked up) 2: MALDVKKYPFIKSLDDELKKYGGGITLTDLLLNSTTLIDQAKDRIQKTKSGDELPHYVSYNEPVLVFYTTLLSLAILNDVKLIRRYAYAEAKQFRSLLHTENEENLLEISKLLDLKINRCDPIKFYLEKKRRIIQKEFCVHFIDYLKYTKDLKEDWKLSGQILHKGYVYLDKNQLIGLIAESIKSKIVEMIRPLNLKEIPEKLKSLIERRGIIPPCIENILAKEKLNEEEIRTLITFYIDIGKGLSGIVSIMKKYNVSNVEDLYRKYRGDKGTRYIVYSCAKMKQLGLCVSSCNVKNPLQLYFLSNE

[3] = target: T2, PriS, primase catalytic subunit, recombinant (S. solfataricus, UniProt Q97Z83 1-330); experiment: SEC
T2 sequence (looked up): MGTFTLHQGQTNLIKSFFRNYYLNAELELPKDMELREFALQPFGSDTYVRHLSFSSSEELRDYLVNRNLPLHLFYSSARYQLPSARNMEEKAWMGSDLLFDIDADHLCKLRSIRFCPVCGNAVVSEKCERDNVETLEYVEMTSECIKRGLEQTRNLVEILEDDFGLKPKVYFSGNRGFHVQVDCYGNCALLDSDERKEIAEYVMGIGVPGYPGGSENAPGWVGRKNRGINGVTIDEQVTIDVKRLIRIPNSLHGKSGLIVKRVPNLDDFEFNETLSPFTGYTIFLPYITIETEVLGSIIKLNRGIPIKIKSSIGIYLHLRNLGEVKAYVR

B1: PriX (product of Sso0502), recombinant full-length protein (natural protein, S. solfataricus, UniProt Q97ZS7 1-154, looked up)
chain: MSQEKKAKKIILHYPDDTPAGYIEYAEGSSSIYDNEGNFLFKVEGKFPPQPKKSSDYSWIEKVLEMGLQDSRKRFILYVASRYLVNVKGVNEDEALQTLKEFYYKLQSGKVYESWLKSVINGVKKKGLLPWSLKRIEERDKEMYNEIIRVLKNS
Q: How did the “stoichiometry N” value [1] turn out when B1 was run?
A: 1

Q: Does B1 bind [2]?
A: binds

Q: Does B2 bind [3]?
A: binds
